{"source": "patent US11340215B2", "about": "“Screening method of anticancer agent focused on function of HP1 and evaluation system” (JAPANESE FOUNDATION FOR CANCER RESEARCH, priority 2016, dated 2022)", "key": {"Aurora B [1]": {"target": "T1, Aurora B (Homo sapiens, UniProt Q96GD4)", "experiment": "Phosphorylation of Aurora B substrates in HeLa cells, fluorescence microscopy with phospho-specific antibodies", "assay_type": "cell-based", "set-up": "endogenous in cells; host or cells: HeLa", "description": "(§1) Cells were cultured on a cover glass and immobilized with 4% paraformaldehyde in PHEM buffer solution (60 mM PIPES, 25 mM HEPES, 10 mM EGTA, 2 mM MgCl2, pH7.0) or PBS, at room temperature. Cells were treated with the above buffer solution containing 0.2 to 1.0% Triton X-100, and blocked with a 3% BSA-containing buffer. Images were obtained by AxiolmagerM1 miacroscope (manufactured by Zeiss) equipped with CoolSNAP HQ camera (manufactured by Photometrics) operated by MetaMorph software (manufactured by MDS Analytical Technologies). The intensity of fluorescence was analyzed by ImageJ software (National Institute of Health).\nNext, activation of Aurora B was analyzed based on degree of phosphorylation of a substrate. HeLa cells were transfected with siRNA of all subtypes of HP1 to inhibit expression of all HP1 subtypes. […] The cells were immobilized and then analyzed by a fluorescence microscope using an antibody recognizing phosphorylation of serine at position 10 of histone H3 (H3-pS10, 6G3, manufactured by Cell Signaling Technology) (FIG. 4B); an antibody recognizing phosphorylation of serine at position 44 of Hec1 (Hec1-pS44, Non Patent Literature 8); an Hec1 antibody (9G3.23, manufactured by Novus Biologicals) (FIG. 4C); and an antibody recognizing phosphorylation of serine at position 100 of Dsn1 (Dsn-pS100, Non Patent Literature 9) (FIG. 4D)."}, "Aurora B [2]": {"target": "T1, Aurora B", "experiment": "Kinase activity of fractions immunoprecipitated with anti-HP1α-pS92 antibody or INCENP antibody", "assay_type": "biochemical", "set-up": "endogenous in cells", "settings": "addition of inhibitor", "description": "The cells in the mitotic phase were incubated in a solution, which was prepared by adding 1 U/μl OmniCleave Endonuclease (manufactured by Epicentre) in the above immunoprecipitation buffer, at 4° C. for 30 minutes. The solution was centrifuged at 4° C. and 15,000 rpm for 10 minutes and the supernatant was further centrifuged. The resultant supernatant was used for immunoprecipitation. Protein A-Sepharose (manufactured by Bio-Rad) having an antibody bound thereto, was allowed to react with cell extracts and subjected to immunoprecipitation. The sample obtained by immunoprecipitation was subjected to the immunoblotting using peroxidase-labeled Mouse TrueBlot ULTRA or Rabbit TrueBlot (manufactured by eBioscience) as a secondary antibody.\nThe kinase assay was carried out by adding a substrate in a kinase buffer (20 mM Tris-HCl, 50 mM MgCl2, 100 mM NaCl, 20 μM ATP, pH7.5) and 0.2 mCi/ml[γ^− ^32P]ATP. […] Phosphorylation was analyzed by Typhoon scanner (manufactured by GE Healthcare) and a liquid scintillation counter.\nNext, we will describe that the binding of HP1 to CPC is necessary for activating Aurora B. Immunoprecipitation was carried out with anti-HP1α-pS92 antibody and INCENP antibody and proteins constituting CPC and subtypes of HP1 were analyzed by immunoblotting (FIG. 5H, left panel). […]"}, "Aurora B [3]": {"target": "T1, Aurora B", "experiment": "Immunostaining of metaphase cells with anti-HP1α-pS92 antibody", "assay_type": "cell-based", "set-up": "endogenous in cells", "settings": "FIG. 5D", "description": "as §1\nIt was shown that the anti-HP1α-pS92 antibody sensitively detects phosphorylated HP1α even if it is used in immunostaining (FIGS. 5D, E). Cells of the interphase, cells of the metaphase, cells of the metaphase where the expression of HP1α was depleted by siRNA and cells of the metaphase where the activity of Aurora B was suppressed by ZM447439 were immunostained with an anti-HP1α-pS92 antibody (FIG. 5D). Only the metaphase cells used as the control were stained. In the interphase cells, cells where the expression of HP1α was depleted and cells where the activity of Aurora B was suppressed, phosphorylated HP1α was not detected."}, "Aurora B [4]": {"target": "T1, Aurora B", "experiment": "In vitro kinase assay with recombinant INCENP, Aurora B and HP1", "assay_type": "biochemical", "settings": "for activation of Aurora B: recombinant proteins, 1 μM HP1", "description": "The kinase assay was carried out by adding a substrate in a kinase buffer (20 mM Tris-HCl, 50 mM MgCl2, 100 mM NaCl, 20 μM ATP, pH7.5) and 0.2 mCi/ml[γ^− ^32P]ATP. As the substrate, GST-Hec1 (1-80) or recombinant histones H3 (manufactured by New England Biolas) was used. Twenty nM INCENP and 120 nM GST-Aurora B were reacted in the presence or absence of 1 μM HP1 at 30° C. for 20 minutes and the reaction was terminated by Laemmli sample buffer. Phosphorylation was analyzed by Typhoon scanner (manufactured by GE Healthcare) and a liquid scintillation counter.\nUsing recombinant proteins of INCENP, Aurora B and HP1α, in vitro kinase assay was carried out (FIG. 6C). […] Accordingly, it was shown that physical binding of HP1 to INCENP is required for activation of Aurora B, and that HP1 has an allosteric effect on Aurora B.\nThen, enzyme kinetics analysis of Aurora B was carried out. […] Further, analysis of proteins binding to GST-Aurora B was carried out by the GST pull down assay. As a result, the amount of Hec1 binding to GST-Aurora B increased in the conditions where HP1 can bind to INCENP. […] Accordingly, binding of HP1α to INCENP is required for activating Aurora B."}, "HP1α": {"target": "T2, HP1α (Homo sapiens, UniProt P45973)", "T2 construct": "His tag or GST tag", "T2 sequence (P45973 whole entry)": "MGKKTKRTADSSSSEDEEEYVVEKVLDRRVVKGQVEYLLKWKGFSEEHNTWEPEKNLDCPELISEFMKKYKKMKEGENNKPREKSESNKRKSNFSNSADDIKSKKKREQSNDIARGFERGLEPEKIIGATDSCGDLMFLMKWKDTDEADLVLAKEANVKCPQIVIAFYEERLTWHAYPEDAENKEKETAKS", "experiment": "Binding assay of INCENP (positions 121 to 270) and HP1α by isothermal titration calorimetry", "description": "Wild type HP1α and a region at positions 121 to 270 in INCENP (SEQ ID NO: 8, INCENP WT) were used in the binding assay. The region at positions 121 to 270 in INCENP contains an important motif […], required for binding to HP1. A mutant (SEQ ID NO: 9, INCENP 3A) was obtained by substituting three amino acids in this region with alanine residues and used as a control. A dissociation constant thereof was determined by isothermal titration calorimetry. As an isothermal titration calorimetry apparatus, any device may be used. For example, using MicroCal iTC2000 system (manufactured by GE healthcare biosciences), measurement may be carried out, in accordance with a conventional method.\nThe above peptides, to which His tag or GST tag was attached, were subjected to isothermal titration calorimetry to determine a dissociation constant. Note that, the dissociation constant was computationally obtained based on average values of 5 experiments."}}}
{"molecule": "COc1cc2c(Nc3ccc(NC(=O)c4ccccc4)cc3)ncnc2cc1OCCCN1CCOCC1", "note": "[ZM447439]", "values": [{"measurement": "Phosphorylation by Aurora B of substrates (H3, Hec1, Dsn1)", "setting": "Aurora B [1]; FIGS. 4B to 4D legend", "result": "suppressed"}, {"measurement": "effect on phosphorylation of Hec1 and Dsn1", "setting": "Aurora B [1]; HeLa cells, low concentration (0.4 μM)", "result": "suppressive effect equal to the effect produced by depletion of HP1"}, {"measurement": "kinase activities of the fractions obtained by immunoprecipitation with the anti-HP1α-pS92 antibody and the INCENP antibody", "setting": "Aurora B [2]", "result": "inhibited"}, {"measurement": "phosphorylated HP1α detected by immunostaining", "setting": "Aurora B [3]", "result": "not detected"}]}
{"molecule": "HP1 mutant I165E: HP1 mutant which cannot form a dimer, cannot bind to INCENP", "values": [{"measurement": "activation of Aurora B", "setting": "Aurora B [4]", "result": "does not activate"}]}
{"molecule": "HP1α: recombinant heterochromatin protein 1 subtype α", "values": [{"measurement": "reaction rate of substrate phosphorylation by Aurora B per unit time", "setting": "Aurora B [4]; enzyme kinetics analysis, FIG. 6G", "result": "significantly increases"}, {"measurement": "activation of Aurora B", "setting": "Aurora B [4]", "result": "highly activate"}]}
{"molecule": "HP1β: heterochromatin protein 1 subtype β", "values": [{"measurement": "activation of Aurora B", "setting": "Aurora B [4]", "result": "highly activate"}]}
{"molecule": "HP1γ: heterochromatin protein 1 subtype γ", "values": [{"measurement": "activation of Aurora B", "setting": "Aurora B [4]", "result": "highly activate"}]}
{"molecule": "INCENP 3A: mutant (SEQ ID NO: 9) obtained by substituting three amino acids of the P×V×I motif with alanine residues (protein, HP1 binding site mutant) LRRVTRAAAAAAAATMALAAPSSPTPESPTMLTKKPEDNHTQCQLVAVAEAGISERQNAEQHVTQLMSTEPLPRTLSPTPASATAPTSQGIPTSDEESTPKKSKARILESITVSSLMATPQDPKGQGVGTGRSASKLRIAQVSPGPRDSP", "values": [{"measurement": "binding to HP1", "setting": "HP1α", "result": "does not bind to HP1"}]}
{"molecule": "INCENP WT: region at positions 121 to 270 in INCENP (SEQ ID NO: 8), with His tag or GST tag (protein, listed as Homo sapiens, His tag or GST tag) LRRVTRAAAAAAAATMALAAPSSPTPESPTMLTKKPEDNHTQCQLVPVVEIGISERQNAEQHVTQLMSTEPLPRTLSPTPASATAPTSQGIPTSDEESTPKKSKARILESITVSSLMATPQDPKGQGVGTGRSASKLRIAQVSPGPRDSP", "values": [{"measurement": "Binding", "setting": "HP1α; binding to wild type HP1α, isothermal titration calorimetry, His tag or GST tag peptides", "result": "◯"}]}
